# Measurements from US20190359683A1 (Stanford University, published 2019).
# Positions count from the first letter of the chain named.
# B1: eCNTFR-Fc (soluble engineered CNTFR fused to mouse IgG2a Fc) (Fc fusion)
# chain: QRHSPQEAPHVQYERLGSDVTLPCGTANWDAAVTWRVNGTDLAPDLLNGSQLVLHGLELGHSGLYACFHRDSWHLRHQVLLHVGLPPQEPVLSCRSNTYPKGFYCSWHLPTPTYIPNTFNVTVLHGSKIMVCEKDPALKNRCHIRYMHLFSPIKHNVSISVSNALGHNATAITFDEFTIVKPDPPENVVARPVPSNPRRLEVTWQTPSTWPDPEFFPLKFFLRYRPLILDQWQHVELSDGTAHTIAAAYAGKEYIIQVAAKDNEFGTWSDWSVAAHATPWTEEPRHLTTEAQAAETTTSTTSSLAPPPTTKICDPGELGSRRLEPRGPTIKPCPPCKCPAPNLLGGPSVFIFPPKIKDVLMISLSPIVTCVVVDVSEDDPDVQISWFVNNVEVHTAQTQTHREDYNSTLRVVSALPIQHQDWMSGKEFKCKVNNKDLPAPIERTISKPKGSVRAPQVYVLPPPEEEMTKKQVTLTCMVTDFMPEDIYVEWTNNGKTELNYKNTEPVLDSDGSYFMYSKLRVEKKNWVERNSYSCSVVHEGLHNHHTTKSFSRTPGK
# notes: Made in HEK293; also called Fc fusion eCNTFR; engineered CLCF1 trap
# How the values were obtained:
# [1] = target: T1, recombinantly produced ciliary neurotrophic factor (CNTF) (UniProt P26441 1-200, limits assumed); experiment: ELISA
# T1 sequence (looked up): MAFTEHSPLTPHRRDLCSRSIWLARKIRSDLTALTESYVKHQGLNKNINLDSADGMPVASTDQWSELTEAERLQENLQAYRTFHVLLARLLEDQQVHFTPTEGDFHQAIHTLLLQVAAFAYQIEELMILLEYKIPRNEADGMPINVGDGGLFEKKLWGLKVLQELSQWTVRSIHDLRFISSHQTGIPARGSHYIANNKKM
# mouse CLCF1 (mCLCF1) = target: T2, mouse CLCF1 (mCLCF1) (mouse, UniProt Q9QZM3 28-225, limits assumed); experiment: ELISA
# T2 construct: also called serum CLCF1 (mouse)
# T2 sequence (looked up): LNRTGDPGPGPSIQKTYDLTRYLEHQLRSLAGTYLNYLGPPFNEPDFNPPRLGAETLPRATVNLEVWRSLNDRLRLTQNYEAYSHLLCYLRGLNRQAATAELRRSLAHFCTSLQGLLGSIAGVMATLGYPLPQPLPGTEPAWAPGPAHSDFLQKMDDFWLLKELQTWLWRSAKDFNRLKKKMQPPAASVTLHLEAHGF
# [2] = target: T3, recombinant human cardiotrophin-like cytokine factor 1 (CLCF1) (human, UniProt Q9UBD9 28-225, limits assumed); experiment: ELISA: incubated with CLCF1 4 h at room temperature, complex captured on anti-mouse Fc plate, detected with rabbit anti-CLCF1
# T3 construct: also called hCLCF1
# T3 sequence (looked up): T2 sequence (looked up) with N63D, R73K, T126A, A141T, A143T, S188A, E194G
# Source text: Then the complexes were captured using microtiter plates coated with anti-his antibody or anti-mouse Fc antibody. […] The same approach was used to characterize binding interaction with the beta receptors.
binder,measurement,setting,value
B1,binding result,[1],no binding
same,binding result,mouse CLCF1 (mCLCF1),binds
same,binding result,[2],binds
